Among the data in PMC10827179 are stoichiometry N values, retold here.

What is called stoichiometry N is the number of molecules, sites or subunits per partner or assembly.

Assay [1] deals with S. mutans CLC^F F-/H+ antiporter encoded by ORF 1289 (SMU.1289) (Streptococcus mutans UA159). Briefly: cross-linking.
Assay [2] concerns the target S. mutans CLC^F homologue encoded by ORF 1290 (SMU.1290) (Streptococcus mutans UA159). Briefly: cross-linking.

Take “S. mutans CLC^F F-/H+ antiporter encoded by ORF 1289 (SMU.1289) (natural protein)”: the stoichiometry N in assay [1] came to 2.

In turn, “S. mutans CLC^F homologue encoded by ORF 1290 (SMU.1290) (natural protein)” registered a stoichiometry N in assay [2] of 2.
